Test results as given in article PMC9352680, “A comprehensive thermodynamic model for RNA binding by the Saccharomyces cerevisiae Pumilio protein PUF4”.

T1: PUF4 RNA-binding domain (Saccharomyces cerevisiae, UniProt P25339 537-888)
T1 sequence: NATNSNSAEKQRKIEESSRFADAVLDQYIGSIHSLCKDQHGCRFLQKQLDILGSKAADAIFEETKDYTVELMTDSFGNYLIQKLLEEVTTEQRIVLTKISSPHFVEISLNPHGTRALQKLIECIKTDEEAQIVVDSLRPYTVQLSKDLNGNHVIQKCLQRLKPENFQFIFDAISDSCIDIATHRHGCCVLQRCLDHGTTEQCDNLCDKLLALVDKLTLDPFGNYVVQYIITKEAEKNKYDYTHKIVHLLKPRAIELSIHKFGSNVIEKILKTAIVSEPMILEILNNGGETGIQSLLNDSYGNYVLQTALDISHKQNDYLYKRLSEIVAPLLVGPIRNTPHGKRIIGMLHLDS

B1: Ie_S2_P3E.2_K3.1_C3.2_H3.1_[+1T]_A3.1_F3.1_T3.2 (ssRNA)
RNA: UUUGAUUAAUAUGAUAUCGUUCUUUCUCUUUGUAUAUAUAUUCUUUCUCGAUAUCAUAUUAAUCUUU
B2: Ie_S2_P3E.2_K3.1_C3.2_[+-2CC]_H3.1_A3.1_F3.1_T3.2 (ssRNA)
RNA: UUUGAUUAAUAUGAUAUCGUUCUUUCUCCCUUGUAUAUAUAUUCUUUCUCGAUAUCAUAUUAAUCUUU
B3: Ie_S2_P3E.2_K3.1_C3.2_H3.1_[+1TT]_A3.1_F3.1_T3.2 (ssRNA)
RNA: UUUGAUUAAUAUGAUAUCGUUCUUUCUCUUUUGUAUAUAUAUUCUUUCUCGAUAUCAUAUUAAUCUUU
B4: Ib_S2_P3E.1_K3.1_C3.1_H3.1_[T3C]_A3.1_F3.1_[A8C]_T3.1 (ssRNA)
RNA: UUUGAUUAAUAUGAUAUCGUUCUUUCUUGCAUAUCUUCUUUCUCGAUAUCAUAUUAAUCUUU
B5: Ib_S2_P3E.1_K3.1_C3.1_H3.1_[A4G]_A3.1_F3.1_[A8T]_T3.1 (ssRNA)
RNA: UUUGAUUAAUAUGAUAUCGUUCUUUCUUGUGUAUUUUCUUUCUCGAUAUCAUAUUAAUCUUU
B6: Ib_S2_P3E.1_K3.1_C3.1_H3.1_A3.1_[T5C]_F3.1_[T7C]_T3.1 (ssRNA)
RNA: UUUGAUUAAUAUGAUAUCGUUCUUUCUUGUACACAUUCUUUCUCGAUAUCAUAUUAAUCUUU
B7: Ia_S2_P3E.1_K3.1_C3.1_H3.1_[G2C]_A3.1_F3.1_T3.1 (ssRNA)
RNA: UUUGAUUAAUAUGAUAUCGUUCUUUCUUCUAUAUAUUCUUUCUCGAUAUCAUAUUAAUCUUU
B8: Ib_S2_P3E.1_K3.1_C3.1_H3.1_[A4G]_A3.1_F3.1_[A8C]_T3.1 (ssRNA)
RNA: UUUGAUUAAUAUGAUAUCGUUCUUUCUUGUGUAUCUUCUUUCUCGAUAUCAUAUUAAUCUUU
B9: Ib_S2_P3E.1_K3.1_C3.1_H3.1_[A4C]_A3.1_F3.1_[A8C]_T3.1 (ssRNA)
RNA: UUUGAUUAAUAUGAUAUCGUUCUUUCUUGUCUAUCUUCUUUCUCGAUAUCAUAUUAAUCUUU

Target: T1, PUF4 RNA-binding domain
Assay: Mg; RNA-MaP; 20 mM Na-HEPES pH 7.4, 30 mM KOAc, 0.75 mM MgCl2, 0.1% Tween-20, 5% glycerol, 0.1 mg/mL BSA, 2 mM DTT; 25 C; 0.0125-409.6 nM protein
Settings: tags: N-His6-TEV cleaved; C-SNAP kept, Cy3B-labelled; label: tethered on chip by stalled RNA polymerase

| Binder | Kd [nM] |
| --- | --- |
| UCUCUUUGUAUUAUUUCUAUCUCUU (ssRNA) [Ie_S1_P5E.1_K5.1_C5.1_H5.1_A5.1_F5.1_[+8TTC]_T5.1] | 18.2 |
| UCUCUUUGUAUUAUUUCCAUCUCUU (ssRNA) [Ie_S1_P5E.1_K5.1_C5.1_H5.1_A5.1_F5.1_[+9TCC]_T5.1] | 20.4 |
| UCUCUUUGUAUUAUUCCCUUAUCUCUU (ssRNA) [Ie_S1_P5E.1_K5.1_C5.1_H5.1_A5.1_F5.1_[+9CCCTT]_T5.1] | 17.6 |
| UCUCUUUGUAUUAUUCCUCUAUCUCUU (ssRNA) [Ie_S1_P5E.1_K5.1_C5.1_H5.1_A5.1_F5.1_[+9CCTCT]_T5.1] | 14.3 |
| B1 | 1.11 |
| UCUCUUUGUAUUAUUUCUCUAUCUCUU (ssRNA) [Ie_S1_P5E.1_K5.1_C5.1_H5.1_A5.1_F5.1_[+9TCTCT]_T5.1] | 14 |
| UCUCUUUGUAUUAUCCUAUCUCUU (ssRNA) [Ie_S1_P5E.1_K5.1_C5.1_H5.1_A5.1_F5.1_[+8CC]_T5.1] | 26.3 |
| UCUCUUUGUAUUAUCUCUAUCUCUU (ssRNA) [Ie_S1_P5E.1_K5.1_C5.1_H5.1_A5.1_F5.1_[+8CTC]_T5.1] | 28.6 |
| UCUCUUUGUAUUAUUCUCUAUCUCUU (ssRNA) [Ie_S1_P5E.1_K5.1_C5.1_H5.1_A5.1_F5.1_[+8TCTC]_T5.1] | 17.8 |
| B2 | 1.07 |
| B3 | 1.22 |
| UCUCUUUGUAUUACUCUUUAUCUCUU (ssRNA) [Ie_S1_P5E.1_K5.1_C5.1_H5.1_A5.1_[+7CTCT]_F5.1_T5.1] | 98.9 |
| UCUCUUUGUAUUAUUAUUCUCUCUU (ssRNA) [Ie_S1_P5E.1_K5.1_C5.1_H5.1_A5.1_F5.1_[+10TTC]_T5.1] | 5.81 |
| UCUCUUUGUAUUAUCUUUAUCUCUU (ssRNA) [Ie_S1_P5E.1_K5.1_C5.1_H5.1_A5.1_F5.1_[+8CTT]_T5.1] | 19.2 |
| UCUCUUUGUAUUACCUCUUUAUCUCUU (ssRNA) [Ie_S1_P5E.1_K5.1_C5.1_H5.1_A5.1_[+7CCTCT]_F5.1_T5.1] | 412 |
| UCUCUUUGUAUUAUCCUCUAUCUCUU (ssRNA) [Ie_S1_P5E.1_K5.1_C5.1_H5.1_A5.1_F5.1_[+8CCTC]_T5.1] | 31.9 |
| UCUCUUUGUAUUAUCCUUAUCUCUU (ssRNA) [Ie_S1_P5E.1_K5.1_C5.1_H5.1_A5.1_F5.1_[+8CCT]_T5.1] | 20.7 |
| UCUCUUUGUAUUACCCUUUUAUCUCUU (ssRNA) [Ie_S1_P5E.1_K5.1_C5.1_H5.1_A5.1_[+7CCCTT]_F5.1_T5.1] | 143 |
| UCUCUUUGUAUUACCCUUAUCUCUU (ssRNA) [Ie_S1_P5E.1_K5.1_C5.1_H5.1_A5.1_[+7CCC]_F5.1_T5.1] | 209 |
| UCUCUUUGUAUUAUUCUUAUCUCUU (ssRNA) [Ie_S1_P5E.1_K5.1_C5.1_H5.1_A5.1_F5.1_[+8TCT]_T5.1] | 16.7 |
| UCUCUUUGUAUUACCCUUUAUCUCUU (ssRNA) [Ie_S1_P5E.1_K5.1_C5.1_H5.1_A5.1_[+7CCCT]_F5.1_T5.1] | 304 |
| UCUCUUUGUAUUAUUCCCUAUCUCUU (ssRNA) [Ie_S1_P5E.1_K5.1_C5.1_H5.1_A5.1_F5.1_[+9CCCT]_T5.1] | 16.2 |
| UCUCUUUGUAUUAUCUCUUAUCUCUU (ssRNA) [Ie_S1_P5E.1_K5.1_C5.1_H5.1_A5.1_[+7TCTC]_F5.1_T5.1] | 22.2 |
| UCUCUUUGUAUUAUUUUCCAUCUCUU (ssRNA) [Ie_S1_P5E.1_K5.1_C5.1_H5.1_A5.1_F5.1_[+9TTCC]_T5.1] | 19.4 |
| UCUCUUUGUAUUAUUCUCUUAUCUCUU (ssRNA) [Ie_S1_P5E.1_K5.1_C5.1_H5.1_A5.1_F5.1_[+8TCTCT]_T5.1] | 16.8 |
| UCUCUUUGUAUUAUCCCUUUAUCUCUU (ssRNA) [Ie_S1_P5E.1_K5.1_C5.1_H5.1_A5.1_F5.1_[+8CCCTT]_T5.1] | 23.1 |
| UCUCUUUGUAUUACCUCUUAUCUCUU (ssRNA) [Ie_S1_P5E.1_K5.1_C5.1_H5.1_A5.1_[+7CCTC]_F5.1_T5.1] | 428 |

| Binder | Kd [nM] |
| --- | --- |
| UCUCUUUGUAUUAUCCCUUAUCUCUU (ssRNA) [Ie_S1_P5E.1_K5.1_C5.1_H5.1_A5.1_F5.1_[+8CCCT]_T5.1] | 33.5 |
| UCUCUUUGUAUUAUUUCCUAUCUCUU (ssRNA) [Ie_S1_P5E.1_K5.1_C5.1_H5.1_A5.1_F5.1_[+8TTCC]_T5.1] | 15 |
| UCUCUUUGUAUUAUUCAUCUCUU (ssRNA) [Ie_S1_P5E.1_K5.1_C5.1_H5.1_A5.1_F5.1_[+9C]_T5.1] | 25.3 |
| UCUCUUUGUAUUAUCCUCUUAUCUCUU (ssRNA) [Ie_S1_P5E.1_K5.1_C5.1_H5.1_A5.1_F5.1_[+8CCTCT]_T5.1] | 23.1 |
| UCUCUUUGUAUUAUCUCUUUAUCUCUU (ssRNA) [Ie_S1_P5E.1_K5.1_C5.1_H5.1_A5.1_[+7TCTCT]_F5.1_T5.1] | 40.6 |
| UCUCUUUGUAUUAUUCCUAUCUCUU (ssRNA) [Ie_S1_P5E.1_K5.1_C5.1_H5.1_A5.1_F5.1_[+9CCT]_T5.1] | 25.5 |
| UCUCUUUGUAUUAUUUUCCUAUCUCUU (ssRNA) [Ie_S1_P5E.1_K5.1_C5.1_H5.1_A5.1_F5.1_[+9TTCCT]_T5.1] | 22.3 |
| UCUCUUUGUAUUAUUCCUUAUCUCUU (ssRNA) [Ie_S1_P5E.1_K5.1_C5.1_H5.1_A5.1_[+7TTCC]_F5.1_T5.1] | 13.8 |
| UCUCUUUGUAUUAUUAUUCCUCUCUU (ssRNA) [Ie_S1_P5E.1_K5.1_C5.1_H5.1_A5.1_F5.1_[+10TTCC]_T5.1] | 4.65 |
| UCUCUUUGUAUUAUUUUUAUCUCUU (ssRNA) [Ie_S1_P5E.1_K5.1_C5.1_H5.1_A5.1_F5.1_[+8TTT]_T5.1] | 13.4 |
| UCUCUUUGUAUUAUUCUAUCUCUU (ssRNA) [Ie_S1_P5E.1_K5.1_C5.1_H5.1_A5.1_F5.1_[+8TC]_T5.1] | 19.9 |
| B4 | > 2300 |
| B5 | 8.99 |
| B6 | 22.4 |
| B7 | 473 |
| B8 | 15.7 |
| B9 | 2130 |
| UCUCUUUGUAUUAUUCCUUUAUCUCUU (ssRNA) [Ie_S1_P5E.1_K5.1_C5.1_H5.1_A5.1_[+7TTCCT]_F5.1_T5.1] | 16.7 |
| UCUCUUUGUAUUAUUUCCUUAUCUCUU (ssRNA) [Ie_S1_P5E.1_K5.1_C5.1_H5.1_A5.1_F5.1_[+8TTCCT]_T5.1] | 17.1 |
| UCUCUUUGUAUUAUUUCUCAUCUCUU (ssRNA) [Ie_S1_P5E.1_K5.1_C5.1_H5.1_A5.1_F5.1_[+9TCTC]_T5.1] | 16.3 |
| UCUCUUUGUAUUAUUAUUUCUCUU (ssRNA) [Ie_S1_P5E.1_K5.1_C5.1_H5.1_A5.1_F5.1_[+10TT]_T5.1] | 6.42 |
| UCUCUUUGUAUUAUUAUCCUCUCUU (ssRNA) [Ie_S1_P5E.1_K5.1_C5.1_H5.1_A5.1_F5.1_[+10TCC]_T5.1] | 6.07 |
| UCUCUUUGUAUUAUCUCUCUAUCUCUU (ssRNA) [Ie_S1_P5E.1_K5.1_C5.1_H5.1_A5.1_F5.1_[+8CTCTC]_T5.1] | 21.4 |
| UCUCUUUGUAUUAUUAUCUCUUCUCUU (ssRNA) [Ie_S1_P5E.1_K5.1_C5.1_H5.1_A5.1_F5.1_[+10TCTCT]_T5.1] | 8.17 |
| UCUCUUUGUAUUAUCCCUAUCUCUU (ssRNA) [Ie_S1_P5E.1_K5.1_C5.1_H5.1_A5.1_F5.1_[+8CCC]_T5.1] | 33.8 |
| UCUCUUUGUAUUAUUAUCUCUCUU (ssRNA) [Ie_S1_P5E.1_K5.1_C5.1_H5.1_A5.1_F5.1_[+10TC]_T5.1] | 4.34 |
